Drawing on article PMC10952593, “Synthetic cannabinoid receptor agonists are monoamine oxidase‐A selective inhibitors” (The Febs Journal, 2023), this text covers Km for one protein.

Substrate in this data set: NCc1ccccc1
In words: purified protein. In kind it is biochemical, Homo sapiens. The note with it: 30 μM MAO-B [sic], 50 mM HEPES pH 7.5, 0.5% Triton X-100, 25 °C.

For orientation: Km means the concentration of substrate that gives half-maximal velocity.

B1: MAO-B (Homo sapiens) (protein)
chain: SNKCDVVVVGGGISGMAAAKLLHDSGLNVVVLEARDRVGGRTYTLRNQKVKYVDLGGSYVGPTQNRILRLAKELGLETYKVNEVERLIHHVKGKSYPFRGPFPPVWNPITYLDHNNFWRTMDDMGREIPSDAPWKAPLAEEWDNMTMKELLDKLCWTESAKQLATLFVNLCVTAETHEVSALWFLWYVKQCGGTTRIISTTNGGQERKFVGGSGQVSERIMDLLGDRVKLERPVIYIDQTRENVLVETLNHEMYEAKYVISAIPPTLGMKIHFNPPLPMMRNQMITRVPLGSVIKCIVYYKEPFWRKKDYCGTMIIDGEEAPVAYTLDDTKPEGNYAAIMGFILAHKARKLARLTKEERLKKLCELYAKVLGSLEALEPVHYEEKNWCEEQYSGGCYTTYFPPGILTQYGRVLRQPVDRIYFAGTETATHWSGYMEGAVEAGERAAREILHAMGKIPEDEIWQSEPESVDVPAQPITTTFLERHLPSVPGLLRLIGLTTIFSATALGFLAHKRGLLVRV
notes: FAD enzyme; PDB 2V5Z was only the docking model
Turning to B1, the Km stood at 140 ± 30 µM.
